Laboratory results from patent US20230103407A1.

Target: mannose receptor (UniProt Q61830)
Experiment: cell-based or functional assay

Chain of mannose receptor (Q61830 20-1456 limits assumed): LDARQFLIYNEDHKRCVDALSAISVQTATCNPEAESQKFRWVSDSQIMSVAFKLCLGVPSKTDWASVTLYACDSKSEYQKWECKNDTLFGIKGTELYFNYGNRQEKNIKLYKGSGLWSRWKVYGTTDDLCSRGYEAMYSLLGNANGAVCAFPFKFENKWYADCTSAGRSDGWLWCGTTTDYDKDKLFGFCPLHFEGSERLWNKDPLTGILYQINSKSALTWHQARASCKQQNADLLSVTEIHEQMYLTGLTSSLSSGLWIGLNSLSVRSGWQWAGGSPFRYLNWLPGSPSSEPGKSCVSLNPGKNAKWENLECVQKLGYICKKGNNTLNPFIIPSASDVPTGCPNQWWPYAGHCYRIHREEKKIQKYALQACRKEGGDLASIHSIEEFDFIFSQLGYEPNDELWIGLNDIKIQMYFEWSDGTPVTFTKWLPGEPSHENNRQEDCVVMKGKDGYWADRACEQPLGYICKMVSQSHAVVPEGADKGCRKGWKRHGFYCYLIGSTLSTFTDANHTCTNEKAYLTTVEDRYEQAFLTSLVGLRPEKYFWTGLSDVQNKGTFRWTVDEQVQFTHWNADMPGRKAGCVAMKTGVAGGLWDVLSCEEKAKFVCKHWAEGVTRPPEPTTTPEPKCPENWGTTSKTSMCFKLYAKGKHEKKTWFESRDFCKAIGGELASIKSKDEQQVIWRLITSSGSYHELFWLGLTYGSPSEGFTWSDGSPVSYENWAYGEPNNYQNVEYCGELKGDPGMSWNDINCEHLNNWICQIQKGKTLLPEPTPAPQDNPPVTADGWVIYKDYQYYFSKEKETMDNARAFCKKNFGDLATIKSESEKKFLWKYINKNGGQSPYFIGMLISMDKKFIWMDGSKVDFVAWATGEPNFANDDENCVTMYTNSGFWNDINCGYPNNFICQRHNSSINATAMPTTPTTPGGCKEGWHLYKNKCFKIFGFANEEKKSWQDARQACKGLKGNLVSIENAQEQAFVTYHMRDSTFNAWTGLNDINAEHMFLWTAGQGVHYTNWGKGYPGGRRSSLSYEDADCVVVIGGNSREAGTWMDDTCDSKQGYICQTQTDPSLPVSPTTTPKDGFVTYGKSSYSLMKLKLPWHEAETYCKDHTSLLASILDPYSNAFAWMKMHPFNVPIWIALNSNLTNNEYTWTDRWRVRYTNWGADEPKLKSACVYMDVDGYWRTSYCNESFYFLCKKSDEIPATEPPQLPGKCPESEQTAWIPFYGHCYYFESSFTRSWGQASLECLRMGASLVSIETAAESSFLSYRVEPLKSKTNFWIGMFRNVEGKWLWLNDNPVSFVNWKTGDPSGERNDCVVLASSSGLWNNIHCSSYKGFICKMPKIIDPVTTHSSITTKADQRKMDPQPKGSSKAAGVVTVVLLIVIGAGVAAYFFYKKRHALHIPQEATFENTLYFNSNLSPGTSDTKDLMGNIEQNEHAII

GCase uptake (net GCase activity) blocked by mannan in J774E macrophages or Gba1-/- neurons: 20%
Substance: SapC-DOPS-GCase nanovesicles
